Reference: paper PMC3226435, “Slice orientation and muscarinic acetylcholine receptor activation determine the involvement of N-methyl D-aspartate receptor subunit GluN2B in hippocampal area CA1 long-term depression” (Molecular Brain, 2011)

Target: T1, N-methyl D-aspartate receptor subunit GluN2B (rat (endogenous in hippocampal slices), UniProt Q00960 27-1482)
T1 construct: NMDA receptor subunit GluN2B, endogenous in hippocampal slices of male Sprague-Dawley rats aged 14-21 days; Immunoprecipitated from the lysate with a rabbit polyclonal antibody against the GluN2B C-terminus; other NMDA receptor subunits may be present in the precipitate but were not examined; source: endogenous, lysate of rat hippocampal slices (RIPA buffer)
Assay: co-IP; GluN2B immunoprecipitated with rabbit polyclonal anti-GluN2B C-terminal antibody on protein A beads from 500 ug RIPA lysate of rat hippocampal slices (sagittal control or 20 uM scopolamine for 2 hrs; untreated coronal or sagittal), overnight at 4°C, four washes in RIPA; Western blot for RasGRF1, RasGRF1 normalized to GluN2B
Details: partners not purified

T1 sequence (Q00960 27-1482): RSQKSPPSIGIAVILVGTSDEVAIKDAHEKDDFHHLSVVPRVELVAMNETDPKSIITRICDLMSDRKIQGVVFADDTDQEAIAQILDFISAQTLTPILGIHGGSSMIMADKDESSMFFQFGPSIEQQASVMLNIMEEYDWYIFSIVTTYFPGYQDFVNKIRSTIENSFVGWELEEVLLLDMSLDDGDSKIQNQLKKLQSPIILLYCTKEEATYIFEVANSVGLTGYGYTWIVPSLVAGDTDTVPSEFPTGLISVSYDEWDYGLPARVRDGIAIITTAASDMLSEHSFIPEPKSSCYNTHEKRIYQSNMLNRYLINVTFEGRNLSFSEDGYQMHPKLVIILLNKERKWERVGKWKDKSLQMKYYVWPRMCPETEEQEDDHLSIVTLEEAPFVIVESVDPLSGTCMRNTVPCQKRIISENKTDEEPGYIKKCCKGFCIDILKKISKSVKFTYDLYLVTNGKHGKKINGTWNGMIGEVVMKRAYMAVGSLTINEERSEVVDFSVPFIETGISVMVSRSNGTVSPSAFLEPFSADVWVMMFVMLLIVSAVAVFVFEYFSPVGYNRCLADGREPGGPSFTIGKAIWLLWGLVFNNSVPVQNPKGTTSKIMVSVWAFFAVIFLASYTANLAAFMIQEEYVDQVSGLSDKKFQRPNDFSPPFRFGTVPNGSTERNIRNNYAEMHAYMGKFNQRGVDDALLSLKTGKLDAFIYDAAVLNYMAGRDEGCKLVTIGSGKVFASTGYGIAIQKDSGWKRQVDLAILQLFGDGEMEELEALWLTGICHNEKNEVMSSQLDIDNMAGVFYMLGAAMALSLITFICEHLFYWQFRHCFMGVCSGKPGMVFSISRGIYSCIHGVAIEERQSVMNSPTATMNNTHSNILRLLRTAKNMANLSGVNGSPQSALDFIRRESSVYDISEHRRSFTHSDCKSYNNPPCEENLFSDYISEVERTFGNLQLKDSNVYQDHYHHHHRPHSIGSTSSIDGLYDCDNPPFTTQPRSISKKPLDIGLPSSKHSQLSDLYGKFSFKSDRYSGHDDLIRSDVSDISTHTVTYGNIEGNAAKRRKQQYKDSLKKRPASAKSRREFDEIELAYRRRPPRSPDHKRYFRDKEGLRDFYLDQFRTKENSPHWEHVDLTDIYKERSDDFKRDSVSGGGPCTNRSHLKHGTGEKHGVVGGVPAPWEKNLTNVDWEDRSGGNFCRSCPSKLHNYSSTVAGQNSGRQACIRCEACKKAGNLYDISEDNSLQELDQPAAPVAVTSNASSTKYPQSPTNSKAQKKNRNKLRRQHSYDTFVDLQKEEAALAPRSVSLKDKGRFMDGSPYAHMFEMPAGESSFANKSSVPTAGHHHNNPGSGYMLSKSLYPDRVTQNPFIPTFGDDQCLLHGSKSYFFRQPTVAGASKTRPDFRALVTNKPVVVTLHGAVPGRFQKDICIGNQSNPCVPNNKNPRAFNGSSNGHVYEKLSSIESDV

- ratio of normalized RasGRF1 in GluN2B immunoprecipitate, coronal/sagittal: 1.33 ± 0.105
- ratio of normalized RasGRF1 in GluN2B immunoprecipitate, scopolamine/control: 2.04 ± 0.451
B1: Ras Guanine nucleotide Release Factor 1 (natural protein, rat (endogenous in hippocampal slices), UniProt P28818 1-1244, looked up)
chain: MQKAIRLNDGHVVSLGLLAQRDGTRKGYLSKRSSDNPKWQTKWFALLQNLLFYFESDSSSRPSGLYLLEGSICKRMPSPKRGTSSKESDKQHHYFTVNFSNDSQKSLELRTDDSKDCDEWVAAIARASYKILATEHEALMQKYLHLLQVVETEKTVAKQLRQQLEDGEVEIERLKAEIANLIKDNERIQSNQLVAPEDEDSDIKKIKKVQSFLRGWLCRRKWKNIIQDYIRSPHADSMRKRNQVVFSMLEAEAEYVQQLHILVNNFLRPLRMAASSKKPPITHDDVSSIFLNSETIMFLHQIFYQGLKARIASWPTLVLADLFDILLPMLNIYQEFVRNHQYSLQILAHCKQNRDFDKLLKQYEAKPDCEERTLETFLTYPMFQIPRYILTLHELLAHTPHEHVERNSLDYAKSKLEELSRVMHDEVSETENIRKNLAIERMITEGCEILLDTSQTFVRQGSLIQVPMSEKGKINKGRLGSLSLKKEGERQCFLFSKHLIICTRGSGSKLHLTKNGVISLIDCTLLDDPENMDDDGKGQEVDHLDFKIWVEPKDSPPFTVILVASSRQEKAAWTSDIIQCVDNIRCNGLMMNAFEENSKVTVPQMIKSDASLYCDDVDIRFSKTMNSCKVLQIRYASVERLLERLTDLRFLSIDFLNTFLHSYRVFTDAVVVLDKLISIYKKPITAIPARSLELLFSSSHNTKLLYGDAPKSPRASRKFSSPPPLAIGTSSPVRRRKLSLNIPIITGGKALELASLGCPSDGYTNIHSPISPFGKTTLDTSKLCVASSLTRTPEEIDMTTLEESSGFRKPTSDILKEESDDDQSDVDDTEVSPPTPKSFRNRITQEFPLFNYNSGIMMTCRDLMDSNRSPLSATSAFAIATAGANESPANKEIYRRMSLANTGYSSDQRNIDKEFVIRRAATNRVLNVLRHWVTKHSQDFETDDLLKYKVICFLEEVMHDPDLLPQERKAAANIMRTLTQEEITENHSMLDELLLMTEGVKTEPFENHSAMEIAEQLTLLDHLVFKSIPYEEFFGQGWMKADKNERTPYIMKTTRHFNHISNLIASEILRNEEVSARASTIEKWVAVADICRCLHNYNAVLEITSSINRSAIFRLKKTWLKVSKQTKSLFDKLQKLVSSDGRFKNLRETLRNCDPPCVPYLGMYLTDLAFLEEGTPNYTEDGLVNFSKMRMISHIIREIRQFQQTTYKIEPQPKVTQYLVDETFVLDDESLYEASLRIEPKLPT
notes: RasGRF1, Ras-specific guanine nucleotide exchange factor, endogenous in hippocampal slices of male Sprague-Dawley rats aged 14-21 days; Detected in the GluN2B immunoprecipitate by Western blot with a rabbit polyclonal anti-RasGRF1 antibody; also called RasGRF1; source: endogenous, lysate of rat hippocampal slices (RIPA buffer)
